According to patent EP1248849B1:

Biological target: mouse LSR (mouse) (UniProt Q99KG5)
Assay: cell-based or functional assay

Sequence of UniProt Q99KG5 (Q99KG5 36-594): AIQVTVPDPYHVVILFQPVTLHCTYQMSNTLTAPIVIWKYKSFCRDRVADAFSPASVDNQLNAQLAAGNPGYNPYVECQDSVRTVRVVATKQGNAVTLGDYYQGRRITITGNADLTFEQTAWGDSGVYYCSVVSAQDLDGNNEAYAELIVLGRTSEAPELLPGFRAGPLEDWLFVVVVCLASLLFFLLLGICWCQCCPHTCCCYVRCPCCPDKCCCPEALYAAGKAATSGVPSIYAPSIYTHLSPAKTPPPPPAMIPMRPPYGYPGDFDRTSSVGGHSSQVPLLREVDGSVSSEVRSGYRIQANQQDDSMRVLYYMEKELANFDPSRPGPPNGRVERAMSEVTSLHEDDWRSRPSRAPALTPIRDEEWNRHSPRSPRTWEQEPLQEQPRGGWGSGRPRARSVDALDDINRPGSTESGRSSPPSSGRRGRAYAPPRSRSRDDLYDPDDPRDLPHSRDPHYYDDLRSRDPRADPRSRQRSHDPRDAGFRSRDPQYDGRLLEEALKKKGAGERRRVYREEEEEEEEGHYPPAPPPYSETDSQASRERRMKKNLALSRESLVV

leptin uptake in a liver cell line (BPRCL), gOBG3 against OBG3: > 30%
Substance: 125I-mouse leptin (from UniProt P41160 22-167) (ligand)
